Source: paper PMC8287583, “Biochemical and Phylogenetic Characterization of a Novel NADP^+-Specific Isocitrate Dehydrogenase From the Marine Microalga Phaeodactylum tricornutum” (Frontiers in Molecular Biosciences, 2021)
Blank lines part the entries; values can stand above or below the molecule they belong to.

Legend:
[1] = target: PtIDH2 L742F mutant (Phaeodactylum tricornutum CCAP 1055/1); assay: SEC; mutant forms of PtIDH2, Superdex 200 (10/300), 0.5 ml/min; salt of the buffer not stated for this panel
[2] = target: Phaeodactylum tricornutum NADP+-specific isocitrate dehydrogenase 2 (PtIDH2), mature form without the signal and transit peptide (Phaeodactylum tricornutum CCAP 1055/1); assay: SEC; Superdex 200 (10/300) Increase, 0.5 ml/min, 20 mM Tris-HCl, 10% glycerol, pH 7.5, 300 mM NaCl (low salt); calibrated with five protein standards
[3] = target: Phaeodactylum tricornutum NADP+-specific isocitrate dehydrogenase 2 (PtIDH2), mature form without the signal and transit peptide (Phaeodactylum tricornutum CCAP 1055/1); assay: SEC-MALS; Superdex 200 (10/300) Increase, 0.5 ml/min, 20 mM Tris-HCl, 10% glycerol, 300 mM NaCl, pH 7.5
[4] = target: Phaeodactylum tricornutum NADP+-specific isocitrate dehydrogenase 2 (PtIDH2), mature form without the signal and transit peptide (Phaeodactylum tricornutum CCAP 1055/1); assay: SEC; Superdex 200 (10/300) Increase, 0.5 ml/min, 20 mM Tris-HCl, 10% glycerol, pH 7.5, 1,000 mM NaCl (high salt); sample incubated in that buffer before chromatography; tetramer to dimers
[5] = target: PtIDH2 A718P mutant (Phaeodactylum tricornutum CCAP 1055/1); assay: SEC; mutant forms of PtIDH2, Superdex 200 (10/300), 0.5 ml/min; salt of the buffer not stated for this panel
[6] = target: PtIDH2 V609L mutant (Phaeodactylum tricornutum CCAP 1055/1); assay: as above
purified protein [7] = substrate: NC(=O)c1ccc[n+]([C@@H]2O[C@H](COP(=O)(O)OP(=O)(O)OC[C@H]3O[C@@H](n4cnc5c(N)ncnc54)[C@H](OP(=O)(O)O)[C@@H]3O)[C@@H](O)[C@H]2O)c1; assay: purified protein; format: biochemical, Phaeodactylum tricornutum; settings: 50 mM Tris-HCl pH 8.0, 25 °C
purified protein [8] = substrate: O=C(O)CC(C(=O)O)C(O)C(=O)O; assay: purified protein; format: biochemical, Phaeodactylum tricornutum; settings: Mn2+ 2.0 mM, 0.5 mM NADP+ fixed, 50 mM Tris-HCl pH 8.0, 25 °C, DL-isocitrate used
purified protein [9] = substrate: NC(=O)c1ccc[n+]([C@@H]2O[C@H](COP(=O)(O)OP(=O)(O)OC[C@H]3O[C@@H](n4cnc5c(N)ncnc54)[C@H](O)[C@@H]3O)[C@@H](O)[C@H]2O)c1; assay: purified protein; format: biochemical, Phaeodactylum tricornutum; settings: DL-isocitrate, 50 mM Tris-HCl pH 8.0, 25 °C, metal not given (wild-type is the Mn2+ value)
[10] = Mn2+ 2.0 mM, 1.0 mM DL-isocitrate fixed
[11] = DL-isocitrate, metal not given (wild-type is the Mn2+ value)

- stoichiometry N [1]: 4
Molecule: PtIDH2 L742F mutant (enzyme)

- stoichiometry N [2]: 4
- stoichiometry N [3]: 4
- stoichiometry N [4]: 2
Molecule: Phaeodactylum tricornutum NADP+-specific isocitrate dehydrogenase 2 (PtIDH2), mature form without the signal and transit peptide (enzyme)

- stoichiometry N [5]: 4
Molecule: PtIDH2 A718P mutant (enzyme)

- stoichiometry N [6]: 4
Molecule: PtIDH2 V609L mutant (enzyme)

B1: PtIDH2 (Phaeodactylum tricornutum CCAP 1055/1) (protein)
chain: PPTSNHRHQPLEHARGSILYTETDEAPALATFSLYPVISKFSALANVDIVPCDISVAGRVLAAFPECLKPSQRVPDNLSYLGKKALEADCAIVKLPNISAPLNQLLECVNELRHKGYDVPLYPHEPSNVEETDVKHRYDKLMGSAVNPVLREGNSDRRVAAPVKAYAQKNPHRMGLWSKASRTHVAHMETGDFYETEQSAVMALPTSVSIVLATKNEGEIVLKAETPLEEGEVVDASRMSVKSLRDFYEREMQDAKDSELMLSLHLKATMMKVSDPIMFGHAIRVFFQDAFDKHGEVLASIGANPNGGLGSVYETIKSKLPADQAATIQADFEACFEDRPWLAMVDSDKGITNLHAPNDIIIDASMPVVVRDSGKMWNKLGELEDVKCLIPDRCYATMYQEVLSYVKTKGQFDVATMGSVANVGLMAKKAEEYGSHDKTFEIPSDGRVVVKDNNTGEVYFEHVVNAGDVWRMCQTKDVAIRDWVRLAVERARATGDRTIFWLDKRRAHDASLIKKVNTYLKDHDTDGLDISIMRPVDAVRISMERATDGKNTISVTGNVLRDYLTDLFPILELGTSAKMLSIVPLLAGGGLYETGAGGSAPKHVQQFVKEGHLRWDSLGEYLALAVALEGLADTAGNPKAKILGDCLNKAVGRILTNRKSPSRVVNQIDNRATNFYVSLYWADFLQQEDPSYKAIFESLTENRGKIVEEFSQCQGTAVDLGGYYLFDPAKTKAAMNPSPTLNKILSSFGPDMN
notes: mature form without putative signal and transit peptide (residues 1-58 of 811 removed), 753 residues, codon-optimized, 6xHis tag from pET-28b (NdeI/XhoI), E. coli Rosetta (DE3); ~80 kDa subunit (theoretical ~82 kDa), ~320 kDa homotetramer; N-term of insert after Met: FRSSTVL (from primer); C-term SSFGPDMN (from primers)
- Km (purified protein [7]; [10]): 37.37 ± 4.02 µM
- kcat (purified protein [7]; [10]): 119 ± 11 s⁻¹
- kcat/Km (purified protein [7]; [10]): 3.22e+06 M⁻¹ s⁻¹
- Km (purified protein [8]): 42.69 ± 8.2 µM

B2: PtIDH2 (Phaeodactylum tricornutum CCAP 1055/1; H661L/R672D) (protein)
chain: PPTSNHRHQPLEHARGSILYTETDEAPALATFSLYPVISKFSALANVDIVPCDISVAGRVLAAFPECLKPSQRVPDNLSYLGKKALEADCAIVKLPNISAPLNQLLECVNELRHKGYDVPLYPHEPSNVEETDVKHRYDKLMGSAVNPVLREGNSDRRVAAPVKAYAQKNPHRMGLWSKASRTHVAHMETGDFYETEQSAVMALPTSVSIVLATKNEGEIVLKAETPLEEGEVVDASRMSVKSLRDFYEREMQDAKDSELMLSLHLKATMMKVSDPIMFGHAIRVFFQDAFDKHGEVLASIGANPNGGLGSVYETIKSKLPADQAATIQADFEACFEDRPWLAMVDSDKGITNLHAPNDIIIDASMPVVVRDSGKMWNKLGELEDVKCLIPDRCYATMYQEVLSYVKTKGQFDVATMGSVANVGLMAKKAEEYGSHDKTFEIPSDGRVVVKDNNTGEVYFEHVVNAGDVWRMCQTKDVAIRDWVRLAVERARATGDRTIFWLDKRRAHDASLIKKVNTYLKDHDTDGLDISIMRPVDAVRISMERATDGKNTISVTGNVLRDYLTDLFPILELGTSAKMLSIVPLLAGGGLYETGAGGSAPKLVQQFVKEGHLDWDSLGEYLALAVALEGLADTAGNPKAKILGDCLNKAVGRILTNRKSPSRVVNQIDNRATNFYVSLYWADFLQQEDPSYKAIFESLTENRGKIVEEFSQCQGTAVDLGGYYLFDPAKTKAAMNPSPTLNKILSSFGPDMN
notes: as for B1
- Km (purified protein [7]; [11]): 47,650 ± 8,344 μM
- kcat (purified protein [7]; [11]): 22.1 ± 5.5 s⁻¹
- kcat/Km (purified protein [7]; [11]): 500 M⁻¹ s⁻¹
- Km (purified protein [9]): 10,271 ± 1,448 μM
- kcat (purified protein [9]): 7.22 ± 0.6 s⁻¹
- kcat/Km (purified protein [9]): 700 M⁻¹ s⁻¹

B3: PtIDH2 (Phaeodactylum tricornutum CCAP 1055/1; H661L/R672D/R721S) (protein)
chain: PPTSNHRHQPLEHARGSILYTETDEAPALATFSLYPVISKFSALANVDIVPCDISVAGRVLAAFPECLKPSQRVPDNLSYLGKKALEADCAIVKLPNISAPLNQLLECVNELRHKGYDVPLYPHEPSNVEETDVKHRYDKLMGSAVNPVLREGNSDRRVAAPVKAYAQKNPHRMGLWSKASRTHVAHMETGDFYETEQSAVMALPTSVSIVLATKNEGEIVLKAETPLEEGEVVDASRMSVKSLRDFYEREMQDAKDSELMLSLHLKATMMKVSDPIMFGHAIRVFFQDAFDKHGEVLASIGANPNGGLGSVYETIKSKLPADQAATIQADFEACFEDRPWLAMVDSDKGITNLHAPNDIIIDASMPVVVRDSGKMWNKLGELEDVKCLIPDRCYATMYQEVLSYVKTKGQFDVATMGSVANVGLMAKKAEEYGSHDKTFEIPSDGRVVVKDNNTGEVYFEHVVNAGDVWRMCQTKDVAIRDWVRLAVERARATGDRTIFWLDKRRAHDASLIKKVNTYLKDHDTDGLDISIMRPVDAVRISMERATDGKNTISVTGNVLRDYLTDLFPILELGTSAKMLSIVPLLAGGGLYETGAGGSAPKLVQQFVKEGHLDWDSLGEYLALAVALEGLADTAGNPKAKILGDCLNKAVGRILTNRKSPSSVVNQIDNRATNFYVSLYWADFLQQEDPSYKAIFESLTENRGKIVEEFSQCQGTAVDLGGYYLFDPAKTKAAMNPSPTLNKILSSFGPDMN
notes: as for B1
- Km (purified protein [7]; [11]): 2,704 ± 142.8 μM
- kcat (purified protein [7]; [11]): 1.01 ± 0.07 s⁻¹
- kcat/Km (purified protein [7]; [11]): 400 M⁻¹ s⁻¹
- Km (purified protein [9]): 5,825 ± 307 μM
- kcat (purified protein [9]): 7.67 ± 1.04 s⁻¹
- kcat/Km (purified protein [9]): 1300 M⁻¹ s⁻¹

B4: PtIDH2 (Phaeodactylum tricornutum CCAP 1055/1; H661L/K660T/R672D/R721S) (protein)
chain: PPTSNHRHQPLEHARGSILYTETDEAPALATFSLYPVISKFSALANVDIVPCDISVAGRVLAAFPECLKPSQRVPDNLSYLGKKALEADCAIVKLPNISAPLNQLLECVNELRHKGYDVPLYPHEPSNVEETDVKHRYDKLMGSAVNPVLREGNSDRRVAAPVKAYAQKNPHRMGLWSKASRTHVAHMETGDFYETEQSAVMALPTSVSIVLATKNEGEIVLKAETPLEEGEVVDASRMSVKSLRDFYEREMQDAKDSELMLSLHLKATMMKVSDPIMFGHAIRVFFQDAFDKHGEVLASIGANPNGGLGSVYETIKSKLPADQAATIQADFEACFEDRPWLAMVDSDKGITNLHAPNDIIIDASMPVVVRDSGKMWNKLGELEDVKCLIPDRCYATMYQEVLSYVKTKGQFDVATMGSVANVGLMAKKAEEYGSHDKTFEIPSDGRVVVKDNNTGEVYFEHVVNAGDVWRMCQTKDVAIRDWVRLAVERARATGDRTIFWLDKRRAHDASLIKKVNTYLKDHDTDGLDISIMRPVDAVRISMERATDGKNTISVTGNVLRDYLTDLFPILELGTSAKMLSIVPLLAGGGLYETGAGGSAPTLVQQFVKEGHLDWDSLGEYLALAVALEGLADTAGNPKAKILGDCLNKAVGRILTNRKSPSSVVNQIDNRATNFYVSLYWADFLQQEDPSYKAIFESLTENRGKIVEEFSQCQGTAVDLGGYYLFDPAKTKAAMNPSPTLNKILSSFGPDMN
notes: as for B1
- Km (purified protein [9]): 11,479 ± 299 μM
- kcat (purified protein [9]): 2.25 ± 0.18 s⁻¹
- kcat/Km (purified protein [9]): 200 M⁻¹ s⁻¹
